Data published in patent publication US12637513B2, “Method of treating cancer by administering an inhibitor of erythropoietin receptor activity comprising either erythropoietin receptor or erythropoietin protein” (ImmunEdge, Inc., priority 2022, dated 2026).

Tests used:
[1] = molecular target: T1, soluble hetero-EPOR (EPOR-CD131-Fc) (Homo sapiens, UniProt P19235+P32927); experiment: Bio-layer interferometry (Octet) binding of hybridoma antibodies to EPOR-CD131-Fc; details: hybridoma supernatants; 30 nM soluble receptor
T1 construct: Chimeric Fc fusion proteins of the extracellular domains of human EPOR and human CD131; purchased Sino Biological CT010-H02H
T1 sequence (P19235 25-250 limits assumed): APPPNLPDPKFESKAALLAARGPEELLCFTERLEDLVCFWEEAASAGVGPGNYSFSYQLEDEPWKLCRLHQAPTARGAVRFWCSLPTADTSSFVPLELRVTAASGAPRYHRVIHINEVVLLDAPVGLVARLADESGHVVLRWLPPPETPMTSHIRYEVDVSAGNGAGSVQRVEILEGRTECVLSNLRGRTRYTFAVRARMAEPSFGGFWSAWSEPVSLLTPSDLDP
T1 sequence (P32927 17-443 limits assumed): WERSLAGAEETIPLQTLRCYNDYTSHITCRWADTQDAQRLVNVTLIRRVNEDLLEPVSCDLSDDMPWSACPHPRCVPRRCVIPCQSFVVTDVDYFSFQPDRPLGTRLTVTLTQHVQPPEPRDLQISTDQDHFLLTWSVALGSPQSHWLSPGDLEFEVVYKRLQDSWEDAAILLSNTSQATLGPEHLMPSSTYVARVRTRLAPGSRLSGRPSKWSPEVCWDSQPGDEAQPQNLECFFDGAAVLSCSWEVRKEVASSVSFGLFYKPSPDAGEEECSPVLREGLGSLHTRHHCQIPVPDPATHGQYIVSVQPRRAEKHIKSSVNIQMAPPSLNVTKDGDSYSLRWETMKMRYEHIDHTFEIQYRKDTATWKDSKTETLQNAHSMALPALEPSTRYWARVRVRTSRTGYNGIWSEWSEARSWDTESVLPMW
From the text: (§1) The B cells from ATX-GK mice were fused with mouse myeloma cells to generate hybridoma. The hybridoma cells were screened twice. In the first screening, 293 cells expressing human EPOR, human CD131, or both were used as the primary screen. 87 hybridoma antibodies have been isolated by positive staining on 293T cells expressing human EPOR (hEPOR), human CD131 (hCD131), or both, with the hybridoma supernatants (Table 11 and FIG. 17). Expression of EPOR and CD131 was confirmed by flow cytometry with Phycoerythrin (PE)-labeled anti-EPOR (R&D Systems, Cat #FAB307P) and Alexa Fluor® 647 (AF647)-labeled anti-CD131 (BD Biosciences, Cat #564191), respectively (FIG. 28B). All hybridoma clones were purified and sequenced. Binding kinetics with soluble hetero-EPOR (EPOR-CD131-Fc), soluble EPO receptor subunit of hetero-EPOR (EPOR-Fc), and soluble CD131 subunit of hetero-EPOR (CD131-Fc) were measured using bio-layer interferometry (Octet®) by capturing the hybridoma antibodies in the supernatants on biosensors coated with anti-mouse Fc first and dipping the biosensors into the solutions containing 30 nM of the soluble receptor Fc fusion proteins. The supernatants were also used to block the interaction between EPO and EPOR. The soluble EPOR-CD131-Fc was first captured on biosensors coated with anti-human Fc and then dipped into 10 nM of EPO with or without the hybridoma supernatants. […]

[2] = molecular target: T2, EPOR-Fc (Homo sapiens, UniProt P19235); experiment: Bio-layer interferometry (Octet) binding of hybridoma antibodies to EPOR-Fc; details: hybridoma supernatants; 30 nM soluble receptor
T2 construct: The extracellular domains of EPOR or CD131 are produced as soluble Fc fusion proteins; purchased Sino Biological 10707-H02H
T2 sequence (P19235 25-250 limits assumed): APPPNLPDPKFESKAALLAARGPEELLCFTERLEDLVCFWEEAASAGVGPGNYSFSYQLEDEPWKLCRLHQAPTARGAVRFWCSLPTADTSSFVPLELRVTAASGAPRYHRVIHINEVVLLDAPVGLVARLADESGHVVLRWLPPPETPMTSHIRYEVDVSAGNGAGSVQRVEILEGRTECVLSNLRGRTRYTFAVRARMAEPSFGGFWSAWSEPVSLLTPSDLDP
From the text: as §1

[3] = molecular target: T3, EPO/EPOR interaction (EPOR-CD131-Fc and EPO) (Homo sapiens, UniProt P19235+P32927); experiment: Octet blocking of the EPO/EPOR interaction by hybridoma supernatants; assay type: binding; details: EPO 10 nM
T3 construct: Chimeric Fc fusion proteins of the extracellular domains of human EPOR and human CD131; purchased Sino Biological CT010-H02H
T3 sequence (P19235 25-250 limits assumed): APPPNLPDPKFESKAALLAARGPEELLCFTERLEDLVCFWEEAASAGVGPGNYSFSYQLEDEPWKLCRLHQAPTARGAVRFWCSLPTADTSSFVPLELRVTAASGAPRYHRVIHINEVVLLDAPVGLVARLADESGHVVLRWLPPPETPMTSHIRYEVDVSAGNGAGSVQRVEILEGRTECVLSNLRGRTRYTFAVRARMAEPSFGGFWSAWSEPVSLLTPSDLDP
T3 sequence (P32927 17-443 limits assumed): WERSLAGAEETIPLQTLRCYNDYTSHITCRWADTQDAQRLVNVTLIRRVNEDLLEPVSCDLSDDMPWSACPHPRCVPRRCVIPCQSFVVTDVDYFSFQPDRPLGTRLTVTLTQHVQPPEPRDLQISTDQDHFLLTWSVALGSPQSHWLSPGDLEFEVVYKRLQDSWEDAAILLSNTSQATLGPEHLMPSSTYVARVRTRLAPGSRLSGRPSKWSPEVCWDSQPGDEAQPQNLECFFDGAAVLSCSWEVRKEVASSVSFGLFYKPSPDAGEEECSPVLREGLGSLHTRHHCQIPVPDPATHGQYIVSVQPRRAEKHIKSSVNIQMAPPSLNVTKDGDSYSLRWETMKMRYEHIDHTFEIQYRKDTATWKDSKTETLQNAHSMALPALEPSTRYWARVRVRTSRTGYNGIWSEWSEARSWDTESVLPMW

B1: EPORab - M1: hybridoma antibody clone, VH/VK in Table 10 (antibody, V domains shown)
VH: QVQLQESGPGLVKPSQTLSLTCTVSGGSISSGGYYWSWIRQHPGKGLEWIGNIYYSGNPYYNPSLKSRLIISVDTSKNQFSLRLNSVTAADTAVYYCATFYYGSGSYYNEDYWGQGTLVTVSS
VL: DIQMTQSPSSLSASVGDRVTITCRASQGIRIDLGWYQQKPGKAPKRLIYAASSLKSGVPSRFSGSGSGTEFTLTISSLQPEDFTTYFCLQHNSYPYTFGQGTKLEIK
binding to EPOR-CD131-Fc [1]: potent binding
binding to EPOR-Fc [2]: potent binding
blocking of the EPO/EPOR interaction [3]: partial blocking
